T1: MBP-SelU (tRNA 2-selenouridine synthase) (Escherichia coli, UniProt P33667 1-364)
T1 sequence: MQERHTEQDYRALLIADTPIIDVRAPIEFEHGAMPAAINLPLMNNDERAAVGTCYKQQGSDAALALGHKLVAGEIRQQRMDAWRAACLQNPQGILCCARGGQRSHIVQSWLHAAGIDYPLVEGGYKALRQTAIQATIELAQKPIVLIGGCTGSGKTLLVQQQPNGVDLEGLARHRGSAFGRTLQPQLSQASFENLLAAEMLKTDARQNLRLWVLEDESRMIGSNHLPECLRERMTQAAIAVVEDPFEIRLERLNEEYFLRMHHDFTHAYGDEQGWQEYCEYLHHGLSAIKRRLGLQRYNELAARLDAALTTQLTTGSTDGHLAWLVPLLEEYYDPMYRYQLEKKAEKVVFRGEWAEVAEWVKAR


Biological target: T1, MBP-SelU (tRNA 2-selenouridine synthase)
Assay: MST (initial fluorescence); 10 mM Mg2+; MST: 2x assay buffer 20 mM Tricine pH 7.2, 20 mM MgCl2, 0.1% Tween-20 mixed with RNA (about 10 mM Tricine, 10 mM MgCl2, 0.05% Tween-20 final if 1:1); Cy3-RNA 50-75 nM; 30 min at room temperature, measured at 22 C
Settings: protein: recombinant, tags: N-terminal MBP (42 kDa, pMAL-c5x), label: 5'-Cy3, hairpin

Binder	Kd (7-nt loop)	Kd (7-nt loop CUUUUAA)
GUUGACUUUUAAUCAAC (structured_RNA, 2-thiouridine (S2U) at nt 8 (tRNA position 34)) [Cy3-S2U(34)-RNALys]	22.4 ± 1.6 µM	
GUUGACUUUUAAUCAAC (structured_RNA, 2-selenouridine (Se2U) at nt 8 (tRNA position 34)) [Cy3-Se2U(34)-RNALys]	27.1 ± 1.5 µM	
GUUGACUUUUAAUCAAC (structured_RNA, S-geranyl-2-thiouridine (geS2U) at nt 8 (tRNA position 34)) [Cy3-geS2U(34)-RNALys]	3.95 ± 0.4 µM	
GUUGACUUUUAAUCAAC (structured_RNA) [Cy3-U(34)-RNALys]		25.5 ± 1.8 µM
